T1: rat NPR-A (rat, UniProt P18910 29-1057)
T1 sequence (looked up): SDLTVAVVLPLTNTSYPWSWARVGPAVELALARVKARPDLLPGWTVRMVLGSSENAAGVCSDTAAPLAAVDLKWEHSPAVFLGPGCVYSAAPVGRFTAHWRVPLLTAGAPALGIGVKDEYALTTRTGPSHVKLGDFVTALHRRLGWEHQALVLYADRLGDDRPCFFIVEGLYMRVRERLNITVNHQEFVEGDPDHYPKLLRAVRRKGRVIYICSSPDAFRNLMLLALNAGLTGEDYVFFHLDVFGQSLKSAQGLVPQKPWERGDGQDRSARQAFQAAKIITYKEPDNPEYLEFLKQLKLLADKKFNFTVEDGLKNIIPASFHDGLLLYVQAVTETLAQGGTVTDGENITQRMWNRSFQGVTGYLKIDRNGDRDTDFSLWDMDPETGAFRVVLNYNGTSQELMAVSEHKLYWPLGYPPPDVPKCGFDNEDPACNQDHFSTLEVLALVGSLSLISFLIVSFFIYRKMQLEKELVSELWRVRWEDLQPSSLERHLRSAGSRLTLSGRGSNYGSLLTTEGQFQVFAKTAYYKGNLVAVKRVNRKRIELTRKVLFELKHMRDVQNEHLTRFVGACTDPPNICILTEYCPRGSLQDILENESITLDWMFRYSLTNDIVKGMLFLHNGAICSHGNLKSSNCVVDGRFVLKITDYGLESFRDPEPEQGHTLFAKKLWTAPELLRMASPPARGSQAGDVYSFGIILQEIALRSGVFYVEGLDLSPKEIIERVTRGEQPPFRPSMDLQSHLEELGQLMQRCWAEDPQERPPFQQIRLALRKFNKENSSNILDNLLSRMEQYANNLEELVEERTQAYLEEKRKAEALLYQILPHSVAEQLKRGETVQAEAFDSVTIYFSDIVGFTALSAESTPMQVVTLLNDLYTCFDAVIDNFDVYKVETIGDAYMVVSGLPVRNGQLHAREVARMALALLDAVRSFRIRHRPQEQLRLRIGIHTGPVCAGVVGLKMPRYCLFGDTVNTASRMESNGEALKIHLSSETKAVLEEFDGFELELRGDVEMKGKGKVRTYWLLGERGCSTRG


Target: T1, rat NPR-A
Assay: cell-based or functional assay

EC50, fluorescence signal of rat NPR-A / CNGA2 (cGMP biosensor) / GCaMP6 CHO reporter cells	EC50 on rNPRA reporter cells	Binder
11 nM	< 20 nM	TPP-11157 (antibody, V domains shown) VH: GFTFSSYAMSWVRQAPGKGLEWVSAISGSVVVTSHQAPGGGSGGGEKKKLKSLAYGSTYYADSVKGRFTISRDNSKNTLYLQMNSLRAEDTAVYYCAKLTGAEYFQHWGQGTLVTVSS VL: QSVLTQPPSVSGAPGQRVTISCTGSSSNIGAGYDVHWYQQLPGTAPKLLIYGNSNRPSGVPDRFSGSKSGTSASLAITGLQAEDEADYYCQSYDSSLSGVVFGGGTKLTVLG
> 1900 nM	> 1000 nM	TPP-11153 (antibody, V domains shown) VH: EVQLLESGGGLVQPGGSLRLSCAASGFTFSSYAMSWVRQAPGKGLEWVSAISGSGGSTYYADSVKGRFTISRDNSKNTLYLQMNSLRAEDTAVYYCTSVHQETKKYQSSPDGGSGGSGGGSYSYTYNYEWHVDVWGQGTLVTVSS VL: QSVLTQPPSVSGAPGQRVTISCTGSSSNIGAGYDVHWYQQLPGTAPKLLIYGNSNRPSGVPDRFSGSKSGTSASLAITGLQAEDEADYYCQSYDSSLSGVVFGGGTKLTVLG
12 nM	< 20 nM	TPP-11155 (antibody, V domains shown) VH: EVQLLESGGGLVQPGGSLRLSCAASGFTFSSYAMSWVRQAPGKGLEWVSAISGSGGSTYYADSVKGRFTISRDNSKNTLYLQMNSLRAEDTAVYYCTSVHQETKKYQSSPDGGSYSYTYNYEWHVDVWGQGTLVTVSS VL: QSVLTQPPSVSGAPGQRVTISCTGSSSNIGAGYDVHWYQQLPGTAPKLLIYGNSNRPSGVPDRFSGSKSGTSASLAITGLQAEDEADYYCQSYDSSLSGVVFGGGTKLTVLG
7 nM	< 20 nM	TPP-11154 (antibody, V domains shown) VH: EVQLLESGGGLVQPGGSLRLSCAASGFTFSSYAMSWVRQAPGKGLEWVSAISGSGGSTYYADSVKGRFTISRDNSKNTLYLQMNSLRAEDTAVYYCTSVHQETKKYQSSPDGGSGGGSYSYTYNYEWHVDVWGQGTLVTVSS VL: QSVLTQPPSVSGAPGQRVTISCTGSSSNIGAGYDVHWYQQLPGTAPKLLIYGNSNRPSGVPDRFSGSKSGTSASLAITGLQAEDEADYYCQSYDSSLSGVVFGGGTKLTVLG
1200 nM	> 1000 nM	TPP-11156 (antibody, human IgG1, lambda) heavy: not shown light: QSVLTQPPSVSGAPGQRVTISCTGSSSNIGAGYDVHWYQQLPGTAPKLLIYGNSNRPSGVPDRFSGSKSGTSASLAITGLQAEDEADYYCQSYDSSLSGVVFGGGTKLTVLGQPKAAPSVTLFPPSSEELQANKATLVCLISDFYPGAVTVAWKADSSPVKAGVETTTPSKQSNNKYAASSYLSLTPEQWKSHRSYSCQVTHEGSTVEKTVAPTECS
180 nM	–	TPP-10992 (antibody, human IgG4 S228P, lambda) heavy: not shown light: QSVLTQPPSVSGAPGQRVTISCTGSSSNIGAGYDVHWYQQLPGTAPKLLIYGNSNRPSGVPDRFSGSKSGTSASLAITGLQAEDEADYYCQSYDSSLSGVVFGGGTKLTVLGQPKAAPSVTLFPPSSEELQANKATLVCLISDFYPGAVTVAWKADSSPVKAGVETTTPSKQSNNKYAASSYLSLTPEQWKSHRSYSCQVTHEGSTVEKTVAPTECS
2300 nM	> 1000 nM	TPP-9902 (antibody) heavy: not shown light: QSVLTQPPSVSGAPGQRVTISCTGSSSNIGAGYDVHWYQQLPGTAPKLLIYGNSNRPSGVPDRFSGSKSGTSASLAITGLQAEDEADYYCQSYDSSLSGVVFGGGTKLTVLGQPKAAPSVTLFPPSSEELQANKATLVCLISDFYPGAVTVAWKADSSPVKAGVETTTPSKQSNNKYAASSYLSLTPEQWKSHRSYSCQVTHEGSTVEKTVAPTECS
